Experimental data from PMC8740826 (Protein Science : A Publication of the Protein Society, 2021).
Read-outs that look alike come from different tables or passages of the source.

How the values were obtained:
SEC-SAXS [1] = biological target: the molecule itself; experiment: SEC-SAXS
SEC-SAXS [2] = biological target: the molecule itself; experiment: SEC-SAXS; remark: listed apart in the source

B1: β-amylase from sweet potato (enzyme)
chain: APIPGVMPIGNYVSLYVMLPLGVVNADNVFPDKEKVEDELKQVKAGGCDGVMVDVWWGIIEAKGPKQYDWSAYRELFQLVKKCGLKIQAIMSFHQCGGNVGDAVFIPIPQWILQIGDKNPDIFYTNRAGNRNQEYLSLGVDNQRLFQGRTALEMYRDFMESFRDNMADFLKAGDIVDIEVGCGAAGELRYPSYPETQGWVFPGIGEFQCYDKYMVADWKEAVKQAGNADWEMPGKGAGTYNDTPDKTEFFRPNGTYKTDMGKFFLTWYSNKLIIHGDQVLEEANKVFVGLRVNIAAKVSGIHWWYNHVSHAAELTAGFYNVAGRDGYRPIARMLARHHATLNFTCLEMRDSEQPAEAKSAPQELVQQVLSSGWKEYIDVAGENALPRYDATAYNQMLLNVRPNGVNLNGPPKLKMSGLTYLRLSDDLLQTDNFELFKKFVKKMHADLDPSPNAISPAVLERSNSAITIDELMEATKGSRPFPWYDVTDMPVDGSNPFD
stoichiometry N (SEC-SAXS [1]): 4

B2: glucose isomerase from Streptomyces rubiginosus (enzyme)
chain: not shown
stoichiometry N (SEC-SAXS [2]): 4
